Measured values published in patent US20090263375.

Columns and labels:
[1] = molecular target: T1, FLAG-Star-PAP ΔPRR ½ (lacking amino acids 223-274)
T1 chain: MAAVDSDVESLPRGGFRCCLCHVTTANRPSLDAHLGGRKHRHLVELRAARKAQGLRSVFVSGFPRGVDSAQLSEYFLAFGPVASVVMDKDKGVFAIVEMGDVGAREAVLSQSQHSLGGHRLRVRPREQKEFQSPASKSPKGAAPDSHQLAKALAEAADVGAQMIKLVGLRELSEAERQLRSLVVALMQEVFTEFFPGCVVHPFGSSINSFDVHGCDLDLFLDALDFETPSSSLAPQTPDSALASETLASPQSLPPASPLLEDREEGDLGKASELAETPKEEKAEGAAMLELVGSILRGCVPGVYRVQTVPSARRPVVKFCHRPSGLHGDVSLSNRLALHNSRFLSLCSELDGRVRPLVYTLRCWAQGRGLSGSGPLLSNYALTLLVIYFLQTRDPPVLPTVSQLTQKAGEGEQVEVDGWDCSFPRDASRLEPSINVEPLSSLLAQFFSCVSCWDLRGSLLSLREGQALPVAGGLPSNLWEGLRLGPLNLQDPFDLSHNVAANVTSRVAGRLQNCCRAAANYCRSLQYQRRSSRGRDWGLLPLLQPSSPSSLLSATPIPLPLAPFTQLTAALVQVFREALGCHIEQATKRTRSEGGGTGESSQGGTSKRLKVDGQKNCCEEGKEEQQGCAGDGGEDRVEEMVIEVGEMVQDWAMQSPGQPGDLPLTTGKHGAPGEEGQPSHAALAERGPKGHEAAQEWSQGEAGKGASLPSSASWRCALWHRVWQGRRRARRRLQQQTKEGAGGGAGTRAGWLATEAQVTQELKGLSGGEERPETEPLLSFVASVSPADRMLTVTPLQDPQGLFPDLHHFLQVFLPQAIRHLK

[2] = molecular target: T2, Flag-Star-PAP (full length)
T2 chain: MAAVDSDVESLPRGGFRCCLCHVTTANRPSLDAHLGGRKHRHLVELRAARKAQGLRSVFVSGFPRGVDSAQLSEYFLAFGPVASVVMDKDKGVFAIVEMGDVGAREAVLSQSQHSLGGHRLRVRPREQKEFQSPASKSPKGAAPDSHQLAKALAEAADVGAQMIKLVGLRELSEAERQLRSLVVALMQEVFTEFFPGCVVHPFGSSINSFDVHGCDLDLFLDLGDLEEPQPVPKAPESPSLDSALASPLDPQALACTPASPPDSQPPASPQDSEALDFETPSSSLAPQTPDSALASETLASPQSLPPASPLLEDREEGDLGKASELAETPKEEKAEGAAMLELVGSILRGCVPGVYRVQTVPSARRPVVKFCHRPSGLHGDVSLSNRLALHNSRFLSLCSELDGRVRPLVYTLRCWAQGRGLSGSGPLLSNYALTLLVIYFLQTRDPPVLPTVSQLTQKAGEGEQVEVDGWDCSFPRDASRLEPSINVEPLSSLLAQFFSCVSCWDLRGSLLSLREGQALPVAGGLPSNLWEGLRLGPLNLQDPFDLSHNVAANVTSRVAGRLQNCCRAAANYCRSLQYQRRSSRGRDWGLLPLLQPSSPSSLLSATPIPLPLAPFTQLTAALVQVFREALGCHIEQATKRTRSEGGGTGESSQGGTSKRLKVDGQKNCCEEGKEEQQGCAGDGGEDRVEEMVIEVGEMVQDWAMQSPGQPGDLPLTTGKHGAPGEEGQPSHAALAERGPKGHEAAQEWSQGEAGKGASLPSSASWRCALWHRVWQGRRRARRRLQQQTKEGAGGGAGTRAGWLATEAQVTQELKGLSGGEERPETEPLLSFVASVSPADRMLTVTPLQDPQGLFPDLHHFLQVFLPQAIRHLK

B1: FLAG-CKIα (wild type) (protein)
chain: MASSSGSKAEFIVGGKYKLVRKIGSGSFGDIYLAINITNGEEVAVKLESQKARHPQLLYESKLYKILQGGVGIPHIRWYGQGKDYNVLVMDLLGPSLEDLFNFCSRRFTMKTVLMLADQMISRIEYVHTKNFIHRDIKPDNFLMGIGRHCNKLFLIDFGLAKKYRDNRTRQHIPYREDKNLTGTARYASINAHLGIEQSRRDDMESLGYVLMYFNRTSLPWQGLKAATKKQKYEKISEKKMSTPVEVLCKGFPAEFAMYLNYCRGLRFEEAPDYMYLRQLFRILFRTLNHQYDYTFDWTMLKQKAAQQAASSSGQGQQAQTPTGF
[1]
  in vitro kinase assay: phosphorylation of FLAG-Star-PAP truncation and deletion mutants: CKIα was able to phosphorylate all truncation mutants except those which lacked the first half of the proline rich region (ΔPRR ½, amino acids 223-274)
[2]
  in vitro kinase assay: phosphorylation of heat inactivated FLAG-Star-PAP: Purified FLAG-CKIα was able to directly phosphorylate heat inactivated Star-PAP
